Laboratory results: patent publication US11840563B2, “Methods of treating cancer by administering inhibitory RNA molecules targeting protease serine 2 (PRSS2) expression” (Children's Medical Center Corporation, priority 2017, dated 2023)

What was measured:
Tsp-1 [1] = assay: Western blot of Tsp-1 in lung fibroblasts treated with psap peptide alone or with rhRAP or Y27632; format: cell-based; settings: co-treatment with peptide, rhRAP 25 or 50 μg
Description: FIGS. 8A-8B. Western blot analysis of Tsp-1 and β-actin expression in lung fibroblasts, which were (FIG. 8A) untreated (−) or treated with psap peptide alone or in combination with 25 or 50 μg of rhRAP, and (FIG. 8B) untreated (−) or treated with psap peptide alone or with Y27632.
In order to delineate the pathway leading from LRP1 to Tsp-1 stimulation by prosaposin, two pathways that have been reported to be stimulated by LRP1 under different conditions were chosen to be examined: Rho and Rac.

Tsp-1 [2] = assay: Western blot of Tsp-1 in lung fibroblasts treated with LN4 CM alone or with STI or Rac1 inhibitor; format: cell-based; settings: lung fibroblasts (W138 cells), co-treatment with LN4 conditioned media
Excerpt: FIG. 11. Western blot analysis of Tsp-1 and β-actin expression in lung fibroblasts that were untreated (−) or treated with LN4 CM alone or in combination with STI.
FIG. 12. Western blot analysis of Tsp-1 and β-actin expression in lung fibroblasts that were untreated (−) or treated with LN4 CM alone or in combination with Rac1 inhibitor.
Attention was then turned to the mechanism by which PC3M-LN4 cells repress Tsp-1 in the tumor microenvironment. In doing so, LN4 conditioned media (CM) was fractionated over a Cu^2+/heparin sepharose column with increasing concentrations of NaCl. The eluted fractions were used to treat lung fibroblasts and Tsp-1 induction was analyzed by western blot. […] By analyzing the protein content of the eluted fractions by tandem liquid chromatography/mass spectrometry (LC/MS), a protein was identified that was present in the active fractions of LN4 CM, but not present in the adjacent fractions or the fractions eluted with the same NaCl concentrations from PC3 CM. The identified protein was the serine protease PRSS2. […] Finally, the signaling pathway emanating from LRP1 that was mediating the PRSS2-induced repression of Tsp-1 was sought to be delineated. […]

PRSS2 = PRSS2 (Homo sapiens, UniProt P07478); assay: Co-immunoprecipitation of LRP1 peptides with PRSS2; format: binding
Description: (§1) FIGS. 16A-16B. Co-immunoprecipitation of LRP1 peptides with PSAP (FIG. 16A) or PRSS2 (FIG. 16B).
(§2) To map the binding sites on LRP1 that binds to prosaposin (PSAP) and/or PRSS2, peptides derived from binding domain I of LRP1 (SEQ ID NOs: 3 and 7-18) were tested for their ability to co-immunoprecipitate with PSAP or PRSS2.

prosaposin (PSAP) = molecular target: T1, prosaposin (PSAP) (Homo sapiens, UniProt P07602); assay: Co-immunoprecipitation of LRP1 peptides with PSAP; format: binding
T1 sequence (P07602 60-524): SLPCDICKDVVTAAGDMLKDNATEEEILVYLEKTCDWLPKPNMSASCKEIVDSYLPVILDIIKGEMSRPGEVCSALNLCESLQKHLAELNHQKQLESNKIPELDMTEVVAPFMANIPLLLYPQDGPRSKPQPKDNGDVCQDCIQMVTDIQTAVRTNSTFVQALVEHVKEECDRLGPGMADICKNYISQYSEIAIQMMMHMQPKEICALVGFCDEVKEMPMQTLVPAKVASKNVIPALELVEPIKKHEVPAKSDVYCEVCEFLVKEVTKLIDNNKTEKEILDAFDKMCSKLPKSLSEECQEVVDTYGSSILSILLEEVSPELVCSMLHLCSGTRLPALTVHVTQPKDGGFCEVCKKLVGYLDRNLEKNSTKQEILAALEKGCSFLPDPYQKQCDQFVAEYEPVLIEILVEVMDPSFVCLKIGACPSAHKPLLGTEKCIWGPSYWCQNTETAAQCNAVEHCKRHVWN
Description: as §1, §2

Tsp-1 [3] = assay: Western blot of Tsp-1/p53 in prostate fibroblasts treated with PC3 conditioned media with or without RAP or PKC inhibitor; format: cell-based; settings: co-treatment with inhibitor
Excerpt: FIGS. 6A-6B. Western blot analysis of: (FIG. 6A) Tsp-1 and β-actin expression in prostate fibroblasts that were untreated (−) or treated with conditioned media from PC3 cells alone or in combination with RAP, and (FIG. 6B) Tsp-1, p53 and β-actin expression in prostate fibroblasts that were untreated (−) or treated with conditioned media from PC3 cells alone or in combination with the PKC inhibitor Go 6983 (PKCi).
Thus, in order to determine how prosaposin was able to stimulate the expression of Tsp-1 and p53 in tumor-associated fibroblasts, prostate fibroblasts were treated with PC3-conditioned media in the presence and absence of Receptor Associate Protein (RAP), a competitive inhibitor or LRP1 binding. […] To determine whether prosaposin-mediated stimulation of Tsp-1 utilized this pathway, fibroblasts were treated with CM from PC3 cells in the presence and absence of the PKC inhibitor Gö 6983. […] Thus, it is believed that Prosaposin functions via binding to LRP1.

PRSS2, sequence (P07478 16-247 limits assumed): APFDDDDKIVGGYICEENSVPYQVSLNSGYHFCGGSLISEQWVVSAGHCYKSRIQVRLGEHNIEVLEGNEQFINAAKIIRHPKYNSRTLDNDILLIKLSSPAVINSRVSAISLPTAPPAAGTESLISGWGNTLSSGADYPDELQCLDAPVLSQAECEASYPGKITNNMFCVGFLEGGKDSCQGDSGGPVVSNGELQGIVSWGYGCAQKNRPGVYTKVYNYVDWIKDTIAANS

`C[C@@H](N)[C@H]1CC[C@H](C(=O)Nc2ccncc2)CC1` [Peptide Y27632, Y27632, reference compound] was tested, and the “effect on stimulation of Tsp-1 by the psap peptide” value (Tsp-1 [1]) was “completely abrogated”.

In the case of `CCN(CC)CCCC(C)Nc1nc(C)cc(Nc2ccc3nc(C)cc(N)c3c2)n1` (racemic) [Rac1 inhibitor, reference compound], the “effect on repression of Tsp-1 by LN4 CM” value (Tsp-1 [2]) is reported as “Tsp-1 levels were restored to basal levels”.

For FICGCVEGYLLQPDNRSCKAKN [Peptide 13], the “binding to PRSS2 (co-immunoprecipitation)” value (PRSS2; listed as peptide 13) was “bind to both PRSS2 and PSAP” and the “binding to PSAP (co-immunoprecipitation)” value (prosaposin (PSAP); listed as peptide 13) was “bind to both PRSS2 and PSAP”.

In the case of YGTCSQLCTNTDGSFICGCVEGYLL [Peptide 12], the “binding to PRSS2 (co-immunoprecipitation)” value (PRSS2; listed as peptide 12) is reported as “bind to both PRSS2 and PSAP” and the “binding to PSAP (co-immunoprecipitation)” value (prosaposin (PSAP); listed as peptide 12) is reported as “bind to both PRSS2 and PSAP”.

`COc1ccc2c(c1)c(C1=C(c3c[nH]c4ccccc34)C(=O)NC1=O)cn2CCCN(C)C` [Gö 6983] was tested, and the “stimulation of Tsp-1 by PC3-conditioned media” value (Tsp-1 [3]) was “abolished the stimulation” and the “stimulation of p53 by PC3-conditioned media” value (Tsp-1 [3]) was “abolished the stimulation”.

B1: RAP: Receptor Associate Protein (RAP), a competitive inhibitor or LRP1 binding (protein, UniProt P30533 35-357, looked up)
Alpha-2-macroglobulin …: YSREKNQPKPSPKRESGEEFRMEKLNQLWEKAQRLHLPPVRLAELHADLKIQERDELAWKKLKLDGLDEDGEKEARLIRNLNVILAKYGLDGKKDARQVTSNSLSGTQEDGLDDPRLEKLWHKAKTSGKFSGEELDKLWREFLHHKEKVHEYNVLLETLSRTEEIHENVISPSDLSDIKGSVLHSRHTELKEKLRSINQGLDRLRRVSHQGYSTEAEFEEPRVIDLWDLAQSANLTDKELEAFREELKHFEAKIEKHNHYQKQLEIAHEKLRHAESVGDGERVSRSREKHALLEGRTKELGYTVKKHLQDLSGRISRARHNEL
B1 was tested, and the “effect on stimulation of Tsp-1 by the psap peptide” value (Tsp-1 [1]) was “blocked the stimulation of Tsp-1 in a dose-dependent fashion” and the “stimulation of Tsp-1 by PC3-conditioned media” value (Tsp-1 [3]) was “no longer stimulated Tsp-1”.

B2: STI: serine protease inhibitor able to inhibit all members of the trypsin family (protein, UniProt P01070 25-205, looked up)
Trypsin inhibitor A: DFVLDNEGNPLENGGTYYILSDITAFGGIRAAPTGNERCPLTVVQSRNELDKGIGTIISSPYRIRFIAEGHPLSLKFDSFAVIMLCVGIPTEWSVVEDLPEGPAVKIGENKDAMDGWFRLERVSDDEFNNYKLVFCPQQAEDDKCGDIGISIDHDDGTRRLVVSKNKPLVVQFQKLDKESL
With B2 the “effect on repression of Tsp-1 by LN4 CM” value (Tsp-1 [2]) was “completely abrogated the repression of Tsp-1”.
